From article PMC4643051

B1: unnamed (parent)
chain 1: DSGCVVSWKNKELKCGSGIFITDNVHTWTEQYKFQPESPSKLASAIQKAHEEGICGIRSVTRLENLMWKQITPELNHILSENEVKLTIMTGDIKGIMQAGKRSLRPQPTELKYSWKTWGKAKMLSTESHNQTFLIDGPETAECPNTNRAWNSLEVEDYGFGVFTTNIWLKLKEKQDVFCDSKLMSAAIKDNRAVHADMGYWIESALNDTWKIEKASFIEVKNCHWPKSHTLWSNGVLESEMIIPKNLAGPVSQHNYRPGYHTQITGPWHLGKLEMDFDFCDGTTVVVTEDCGNRGPSLRTTTASGKLITEWCCRSCTLPPLRYRGEDGCWYGMEIRPLKEKEENLVNSLVTA
chain 2: FHLTTRNGEPHMIVSRQEKGKSLLFKTEDGVNMCTLMAMDLGELCEDTITYKCPLLRQNEPEDIDCWCNSTSTWVTYGTCTTMGEHRRQKRSVALVPHVGMGLETRTETWMSSEGAWKHVQRIETWILRHPGFTMMAAILAYTIGTTHFQRALIFILLTAVTPSMT

Variants of: B1
Conditions: with partner chain of the complex shown;; read off a plot

Variant | ratio to parent
chain 1 W115A | 0.45 fold of WT
chain 1 S114A | 0.27 fold of WT
chain 1 T117A | 1.5 fold of WT
chain 1 D180A | 1.5 fold of WT
chain 1 T301A | 1.7 fold of WT
